Tests used:
Test in all cases: EMSA
Conditions in all cases: 12 mM HEPES-KOH pH 7.6, 10 mM MgCl2, 200 mM NaCl, 4 mM Na2HPO4, 4 mM NaH2PO4, 0.4 mM EDTA, 1 mM DTT, 0.5% BSA, 10% glycerol, 200-fold poly(dI-dC), 1 nM DNA …
[1] = biological target: AraR WT (Bacillus subtilis) (UniProt P96711)
[2] = biological target: AraR Y5F Y5F (Bacillus subtilis) (UniProt P96711)
[3] = biological target: AraR E30A E30A (Bacillus subtilis) (UniProt P96711)
[4] = test system: AraR E30A (Bacillus subtilis)
[5] = test system: AraR WT (Bacillus subtilis)
[6] = test system: AraR Y5F (Bacillus subtilis)

Substance | Kd [1] | Kd [2] | Kd [3] | Kd [4] | Kd [5] | Kd [6]
GATTGACAGTATAATAGTCAATTACTATAATAAAATTGGTCGTACAAATATTTATTTATAGGTTTATTTTCTATCATTAGTACGTATCTTTTGTATTTGAAAGCGTTTTATTTTATGAGAAAGGG (double strand) [ORA1 T6->G] | 56 nM | 476 nM | 254 nM |  |  | 
GATTGACAGTATAATAGTCAATTACTATAATAAAATTGTTCGTACAAAGATTTATTTATAGGTTTATTTTCTATCATTAGTACGTATCTTTTGTATTTGAAAGCGTTTTATTTTATGAGAAAGGG (double strand) [ORA1 T16->G] | 110 nM | 355 nM | 347 nM |  |  | 
GATTGACAGTATAATAGTCAATTACTATAATAAAATTGTTCGTACAAATATTTATTTATAGGTTTATTTTCTATCATTAGTACGTATCTTTTGTATTTGAAAGCGTTTTATTTTATGAGAAAGGG (double strand) [araABDLMNPQ-abfA promoter ORA1-ORA2 WT] | 27 nM | 274 nM | 198 nM |  |  | 
GATTGACAGTATAATAGTCAATTACTATAATAAAATTTTTCGTACAAATATTTATTTATAGGTTTATTTTCTATCATTAGTACGTATCTTTTGTATTTGAAAGCGTTTTATTTTATGAGAAAGGG (double strand) [ORA1 G5->T] | 345 nM |  | 748 nM |  |  | 
GATTGACAGTATAATAGTCAATTACTATAATAACATTGTTCGTACAAATATTTATTTATAGGTTTATTTTCTATCATTAGTACGTATCTTTTGTATTTGAAAGCGTTTTATTTTATGAGAAAGGG (double strand) [ORA1 A1->C] | 74 nM | 331 nM | 675 nM |  |  | 
ORA1 A1->C |  |  |  | 67.5 10^-8 M | 7.4 10^-8 M | 33.1 10^-8 M
ORA1 G5->T |  |  |  | 74.8 10^-8 M | 34.5 10^-8 M | > 200 10^-8 M
ORA1 T6->G |  |  |  | 25.4 10^-8 M | 5.6 10^-8 M | 47.6 10^-8 M
ORA1 T16->G |  |  |  | 34.7 10^-8 M | 11 10^-8 M | 35.5 10^-8 M
araABDLMNPQ-abfA promoter ORA1-ORA2 WT |  |  |  | 19.8 10^-8 M | 2.7 10^-8 M | 27.4 10^-8 M

From paper PMC4218819
